Experimental findings from the nanobody polyreactivity screen of Harvey et al. (2022) are described below.

The nature of the data set: yeast display, Sf9 membrane polyspecificity reagent, FACS + sequencing; frameworks hold sequencing errors. In short, it runs like this: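 Using colony PCR, genes from sorted yeast display clones were amplified, then sequenced on MiSeq at 2 × 250 and filtered by CDR length. The clones had been stained with 10% biotinylated, detergent-solubilized Sf9 membrane reagent for 1 hour at 4 °C and sorted by FACS into low and high (top ~1%) gates on anti-HA and streptavidin fluorescence. Polyreactivity labels come from the gate of origin.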
Regarding “QVQLVESGGGLVQAGGSLRLSCAASGRIFGGNAMGWYRQAPGKERELVAAITSGGTTNYADSVKGRFTISRDNAKNTVYLQMNSLKPEDTAVYYCAADFKPLYYDEYDYWGQGTQVTVSS”, the “polyreactivity (PSR sort gate)” value is reported as “low polyreactivity”.

Consider “QVQIVDSGGGVVQAGGILRLSSAASGYTFGSYDMGWYRQEPGKERELVAAISGGGSTNYADSVKGRFTISRDNAKNTVYLQMNCLKPEDTAVYYCAAYPYLYPLRFEEYDHWGQGTQVTVSS”, for which the “polyreactivity (PSR sort gate)” value is “low polyreactivity”. For “QVQLVESGGGLVQAGGSLRLSCAASGSTFSYYRMGWYRQATGTERELVASIDYSGESTYYADSVKGRFTISLDNAKNTVYLQMNSLNPEDTAVYYCAADDYPWNRYEYWGQGTQVTVSS”, the “polyreactivity (PSR sort gate)” value is listed as “low polyreactivity”. The result for “QVQLVESGGGLVQAGGSLRLSCAASGSIFWFYAMGWYRQAPGKERELVAAITSTGGTYYADSVKGRFTISRDNAKNTVYLQMNSLKPEDTAVYYCAADRIGGPGSYLYDYWGQGTQVTVSS” reads “low polyreactivity”. As for “EVQLVESGGGVDQAVGSLRLSCAASGSIFLFYARGWYRQARGKEMELVARISFRSTSTYYADSVKGRFTISLDNAKYTVSLQMNSLKPEDTAVYYCATRTWYGYLYDYWGQGTQVTVSS”, the “polyreactivity (PSR sort gate)” value was “high polyreactivity”.

With “QVQLVESGGGLVQAGGSLRLSCAASGFIFPYNEMGWYRPAPGKERELGAAITSGSNTYYADSVKGRFTISRDNAKNTVYLQLNSLKPEDTAFYYCAARRRIYRSMGYWGQGSQVTVSS”, the “polyreactivity (PSR sort gate)” value was “low polyreactivity”. The result for “QVQRVESGGGLVQAGGSLRLSCAASGRIFPTNAMGWYRQAPGKERELVAAIPVSGGSTYYADSVKGRFTISRDNAKNTVYLQMNSLKPEDTAVYYCAADSSTYRFDYWGQGTQVTVSS” reads “low polyreactivity”. For the sequence “QVQLVESGGGLVQAGGSLRLSCAASGRIFSINAMGWYRQAPGKERELVASISSGGSTKYADSVKGRFTISRDNAKNTVYLQMNSLKPEDTAVYYCAARGRVYRYGYWGQGTQVTVSS”, the “polyreactivity (PSR sort gate)” value is listed as “high polyreactivity”. For the sequence “QVQLVESGGGLVQAGGSLRLRCAASGRIFVYNAMGWYRQAPGKERELVAAISRSGSSTYYADSVKGRFTISRDNAKNTVYLQMYSLKPEDTSVYYCAARTFSIAYYKYGYWGQGTHVTVSS”, the “polyreactivity (PSR sort gate)” value is recorded as “high polyreactivity”. Consider “QVQLVESGGGLVQAGCSLRLICAASGIIFVGYAMGWYRQAPGKDRELVAGINSGGSTNYADSVKGRFTISRDNAKNTVYLQMNSLKPEDTAVYYCAAYPYYYYGYDYWGQGTQVTVSS”, for which the “polyreactivity (PSR sort gate)” value is “low polyreactivity”. The result for “QVQLVESGGGLVQAGGSLRLSCAASGSIFQAYVMGWYRQAPGKERELVATIDRRGGITYYADSVKGRFTISRDNAKNTVYLQMNSLKPEDTAVYYCATRTRLAQYSRGRYRYDYWGQGTQVTVSS” reads “high polyreactivity”; that for “QVQIVESGGGLVQAGRSLRLSCAASGSTFEFYAMGWYRQAPGKEREFVAGITSSGVTTYYADSVKGRFTISRDNAKYTVYLQMNSLKPVDTAVYYCAATDVVYSWFFLVYIPYDYWGQGTQVTVSS”, “low polyreactivity”. For the sequence “QVQLVESGGGLVQAGGSLPLICADSGFISAYYAMGWYRQAPGKEREFVAGISKSGSSTSYADSVKGRFTISRDNAKKTVYLQMNSLKPEDTAVYYCAKYTPYYSELGYWGQGTQVTVSS”, the “polyreactivity (PSR sort gate)” value is “high polyreactivity”.

On to “QVQLVESGGGLVQAGGSLRLSCAASGSTLRRYAMGWYRQAPGKEMELVAAISGSGDSTYYADSVKGRFTISRDNAKNTVYLQMNSLKPEDTAVYYCNAVYAFNGYDYWGQGTQVTVSS”, for which the “polyreactivity (PSR sort gate)” value is given as “low polyreactivity”. The result for “QVQLVESGGGLVQAGGSLRLICAASGRTFYKYAMGWYRQAPGKEREFVADISSRGGSTYYADSVKGRFTISRDNAKNTVYLQMNSLKPEDTSVYYCAAFSDLTFWHHFSELYYWGQGTQVTVSS” reads “high polyreactivity”; that for “QVQLVESGGGLVQAGGSLRLSCAASGSIFFWYAMGWYRQAPGKVRELVAAISYSGSRTYYSDSVKGRFTISRDNAKNTVYLQMNSLKPEDTAVDYFNVSLYSGAEYDYWGQGTQVTVSS”, “high polyreactivity”.
